Each block holds one binder with its values, some of them ahead of it.
What was measured:
[1] = target: T1, RAGE-derived peptide NtermR31 (human); experiment: dot blot, non-denatured peptide on nitrocellulose
T1 construct: Synthetic peptide with a free carboxyl terminus
T1 peptide: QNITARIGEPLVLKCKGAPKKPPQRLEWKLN
Source text: (§1) Dot blots were used to evaluate the binding of antibodies to peptides or fragments of RAGE in a non-denatured form. […] Peptides were ordered and synthesized by Biotrend according to standard methods (solid phases peptide synthesis on AMS 222 synthesizer using Fmoc/tBu-chemistry) containing a free carboxyl terminus. Peptides were HPLC-purified and analysis of every peptide for purity was done using RP-HPLC. […] The identities of peptides were verified by mass spectrometry.
(§2) Dots consisting of different amount of protein/peptide (30 ng, 10 ng, 3 ng, 1 ng, 0.3 ng, 0.1 ng, 0.03 ng, and 0.01 ng) in a volume of 1 μl in 1×PBS were spotted onto a Hybond-ECL Nitrocellulose Membrane (Amersham, RPN68D) in duplicates. Membranes were dried and unspecific binding was blocked by shaking the membranes for 1 hour at room temperature with Western Blocking reagent (Roche, no. 1921673). Blocking reagent was discarded and the membranes were incubated with antibodies in a concentration of 7.14 nM (shaking, 1 hour at room temperature). […] Blots were washed 4 times (each time 5 minute incubation with shaking at room temperature) with 1×PBS. Blots were then incubated with goat anti mouse IgG AP secondary antibody (Sigma no. A-7434) diluted 1:2000 in Western Blocking Reagent (Roche, no. 192173). Incubation for 1 hour was as before (shaking, room temperature). The filters were washed 4 times (5 minutes each) in 1×PBS. Development of signals was according to manufacturers instructions with NBT/BCIP substrate solution (Roche, no. 1697471). Color development was stopped after 10 minutes with bi-distilled water.

[2] = target: T2, RAGE-derived peptide 1 (human); experiment: dot blot, non-denatured peptide on nitrocellulose
T2 construct: Synthetic peptide with a free carboxyl terminus
T2 peptide: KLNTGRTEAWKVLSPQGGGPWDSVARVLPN
Source text: as §1, §2

[3] = target: T3, RAGE-derived peptide 2 (human); experiment: dot blot, non-denatured peptide on nitrocellulose
T3 construct: Synthetic peptide with a free carboxyl terminus
T3 peptide: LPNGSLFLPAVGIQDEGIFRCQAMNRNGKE
Source text: as §1, §2

[4] = target: T4, RAGE-derived peptide 4 (human); experiment: dot blot, non-denatured peptide on nitrocellulose
T4 construct: Synthetic peptide with a free carboxyl terminus
T4 peptide: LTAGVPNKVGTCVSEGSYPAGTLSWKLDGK
Source text: as §1, §2

[5] = target: T5, RAGE-derived peptide 6 (human); experiment: dot blot, non-denatured peptide on nitrocellulose
T5 construct: Synthetic peptide with a free carboxyl terminus
T5 peptide: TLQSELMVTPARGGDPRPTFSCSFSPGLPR
Source text: as §1, §2

[6] = target: T6, RAGE-derived peptide 8 (human); experiment: dot blot, non-denatured peptide on nitrocellulose
T6 construct: Synthetic peptide with a free carboxyl terminus
T6 peptide: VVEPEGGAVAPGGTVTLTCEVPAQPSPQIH
Source text: as §1, §2

[7] = target: T7, RAGE-derived peptide 9 (human); experiment: dot blot, non-denatured peptide on nitrocellulose
T7 construct: Synthetic peptide with a free carboxyl terminus
T7 peptide: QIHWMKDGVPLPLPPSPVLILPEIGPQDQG
Source text: as §1, §2

[8] = target: T8, RAGE-derived peptide 10 (human); experiment: dot blot, non-denatured peptide on nitrocellulose
T8 construct: Synthetic peptide with a free carboxyl terminus
T8 peptide: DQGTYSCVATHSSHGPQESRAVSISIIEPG
Source text: as §1, §2

[9] = target: T9, E. coli RAGE Construct #2, 6His-(Thr)-[RAGE (24-129)] (human); experiment: ELISA: RAGE 24-129 (E. coli, D#1474) coated, mAb titrated, anti-mouse HRP conjugate, TMB
T9 construct: Expressed in E. coli with an N-terminal 6His-(Thr) tag, which is part of the entry; also called RAGE protein #2
T9 chain: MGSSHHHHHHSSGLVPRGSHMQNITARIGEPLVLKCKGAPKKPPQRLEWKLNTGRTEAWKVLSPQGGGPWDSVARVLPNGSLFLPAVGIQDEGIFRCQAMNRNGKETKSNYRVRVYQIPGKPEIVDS
Experimental: (§3) Antigens (purified construct #1-7 proteins) were diluted into Coating Buffer [100 mM NaHCO₃, pH 8.2] to 1 μg/ml, and 100 μl of the resulting solution was then aliquoted into a 96-well Nunc Immuno Plate (Maxi-Sorb Surface, flat bottom, catalog #439454). The plate was sealed with sealing film and incubated at 4° C. overnight. The next day, the plate wells were each washed 3 times with 150 μL PBST buffer [Sigma PBS+0.05% Tween 20]. Then 300 ul of blocking solution (3% NFDM in PBST) was added to each well. The plate was incubated for 2 hours at room temperature and shaking at 100 rpm. After the incubation step, each well was again washed three times with 150 uL PBST. […] The plate was then sealed with sealing film and incubated for 2 hours at room temperature and shaking at 100 rpm. Next the antibody solution was drained out of the wells, and each well then washed three times with 200 ul PBST. To each well then 200 ul of a 1:5000 dilution (in PBST/1% NFDM) of conjugated secondary antibody [Donkey anti-mouse HRPO conjugate, Jackson Immuno Research, Catalog #715-035-150] was added. The plate was covered and allowed to incubate for 1 hour at room temperature while shaking at 100 rpm. Following this incubation, the solution was removed from the wells and each well was washed three times with 200 ul PBST. To each well 100 μL of HRPO substrate [3,3′,5′,5′-Tetramethylbenzidine Liquid Substrate (TMB), Supersensitive for ELISA, Sigma Catalog #T4444] solution was added and the plate incubated at room temperature for 10 minutes. Finally, 50 μL of 2M H₂SO₄ was added to each well to stop the reaction and the A₅₄₀ₙₘ of each well was measured using a microtiter plate reader.

[10] = target: T10, E. coli RAGE Construct #3, 6His-(Thr)-[RAGE (24-234)] (human, UniProt Q15109 24-234); experiment: ELISA: RAGE 24-234 (E. coli, D#1475) coated, mAb titrated, anti-mouse HRP conjugate, TMB
T10 construct: Expressed in E. coli with an N-terminal 6His-(Thr) tag, which is part of the entry; also called RAGE protein #3
Experimental: as §3

[11] = target: T11, E. coli RAGE Construct #4, 6His-(Thr)-[RAGE (24-336)] (human, UniProt Q15109 24-336); experiment: ELISA: RAGE 24-336 (E. coli, D#1476) coated, mAb titrated, anti-mouse HRP conjugate, TMB
T11 construct: Expressed in E. coli with an N-terminal 6His-(Thr) tag, which is part of the entry; also called RAGE protein #4
Experimental: as §3

[12] = target: T12, E. coli RAGE Construct #5, 6His-(Thr)-[RAGE (130-234)] (human); experiment: ELISA: RAGE 130-234 (E. coli, D#1477) coated, mAb titrated, anti-mouse HRP conjugate, TMB
T12 construct: Expressed in E. coli with an N-terminal 6His-(Thr) tag, which is part of the entry; also called RAGE protein #5
T12 chain: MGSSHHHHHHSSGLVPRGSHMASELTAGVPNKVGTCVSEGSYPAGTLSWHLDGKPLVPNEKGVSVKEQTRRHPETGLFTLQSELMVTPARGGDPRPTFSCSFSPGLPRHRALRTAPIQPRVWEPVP
Experimental: as §3

binding result [1]: no binding
binding result [2]: no binding
binding result [3]: no binding
binding result [4]: no binding
binding result [5]: no binding
binding result [6]: no binding
binding result [7]: no binding
binding result [8]: no binding
binding result [9]: no binding
binding result [10]: no binding
EC50 (read off the curve) [11]: ~0.2 nM
binding result [12]: no binding
B1: anti-human RAGE monoclonal antibody 4E5 (murine, hybridoma-derived) (antibody, V domains shown)
VH: QVQLQQSGAELVRPGTSVKVSCKASGYAFNNYLIEWIKQRPGQGLEWIGVINPGSGGTNHNEKFKVKATLTADKSSSTAYIQLSSLTSDDSAVYFCARSAGTARARFAYWGQGTLVTVSA
VL: DIQMTQSPSSLSASLGERVSLTCRASQDIGSSLNWLQQEPDGTIKRLIYATSSLDSGVPKRFSGSRSGSDYSLTISSLESEDFVDYYCLQYASFPFTFGSGTKLEIKR
notes: also called mAb4E5; ML37-4E5

binding result [1]: no binding
binding result [2]: no binding
binding result [3]: no binding
binding result [4]: no binding
binding result [5]: no binding
binding result [6]: no binding
binding result [7]: no binding
binding result [8]: no binding
binding result [9]: no binding
binding result [10]: no binding
EC50 (read off the curve) [11]: ~0.2 nM
binding result [12]: no binding
B2: anti-human RAGE monoclonal antibody 11E6 (murine, hybridoma-derived) (antibody, V domains shown)
VH: QIQLVQSGPELKKPGETVKISCKASGYTFTNFGMNWVKQAPGKGLKWMGYINTNTGESIYSEEFKGRFAFSLETSASTAYLQINNLKNEDTATYFCARSRMVTAYGMDYWGQGTSVTVSS
VL: DIVMTQSQKFMSTSVGDRVSITCKASQNVGTAVAWYQQRPGQSPKLLIFSASNRYTGVPDRFTGSGSGTDFTLTLSNMQPEDLADYFCQQYSSYPLTFGVGTKLELKR
notes: also called mAb11E6; ML37-11E6

binding result [1]: no binding
binding result [2]: no binding
binding result [3]: no binding
binding result [4]: no binding
binding result [5]: no binding
binding result [6]: no binding
binding result [7]: no binding
binding result [8]: no binding
binding result [9]: no binding
binding result [10]: no binding
binding result [11]: no binding
binding result [12]: no binding
B3: anti-human RAGE monoclonal antibody 7F9 (murine, hybridoma-derived) (antibody, V domains shown)
VH: EEKLEESGGGLVQLGGSMKISCVASGFTLSNYWMDWVRQSPEKGLEWIAEIRLKSNYYSTHYAESVKGRFSISRDDSKGSVSLQMDNLTAEDTGIYFCARNAYWYFDVWGTGTTVTVSS
VL: DIVMTQSHKFMSTSVGDRVSATCKASQDVGTSVAWYQQKLGQSPKLLIYWTSTRHTGVPDRFTGSGSGTDFTLTISNVQSEDLADYFCQQYNNYPLTFGDGTKLELKR
notes: also called mAb7F9; MAb 7F9

Source: patent publication US20170002075A1 (AbbVie / Abbott, published 2017)
